In IntAct's records for PubMed 33368531:

Target: T1, ofd1_human OFD1 (UniProt O75665)
T1 sequence: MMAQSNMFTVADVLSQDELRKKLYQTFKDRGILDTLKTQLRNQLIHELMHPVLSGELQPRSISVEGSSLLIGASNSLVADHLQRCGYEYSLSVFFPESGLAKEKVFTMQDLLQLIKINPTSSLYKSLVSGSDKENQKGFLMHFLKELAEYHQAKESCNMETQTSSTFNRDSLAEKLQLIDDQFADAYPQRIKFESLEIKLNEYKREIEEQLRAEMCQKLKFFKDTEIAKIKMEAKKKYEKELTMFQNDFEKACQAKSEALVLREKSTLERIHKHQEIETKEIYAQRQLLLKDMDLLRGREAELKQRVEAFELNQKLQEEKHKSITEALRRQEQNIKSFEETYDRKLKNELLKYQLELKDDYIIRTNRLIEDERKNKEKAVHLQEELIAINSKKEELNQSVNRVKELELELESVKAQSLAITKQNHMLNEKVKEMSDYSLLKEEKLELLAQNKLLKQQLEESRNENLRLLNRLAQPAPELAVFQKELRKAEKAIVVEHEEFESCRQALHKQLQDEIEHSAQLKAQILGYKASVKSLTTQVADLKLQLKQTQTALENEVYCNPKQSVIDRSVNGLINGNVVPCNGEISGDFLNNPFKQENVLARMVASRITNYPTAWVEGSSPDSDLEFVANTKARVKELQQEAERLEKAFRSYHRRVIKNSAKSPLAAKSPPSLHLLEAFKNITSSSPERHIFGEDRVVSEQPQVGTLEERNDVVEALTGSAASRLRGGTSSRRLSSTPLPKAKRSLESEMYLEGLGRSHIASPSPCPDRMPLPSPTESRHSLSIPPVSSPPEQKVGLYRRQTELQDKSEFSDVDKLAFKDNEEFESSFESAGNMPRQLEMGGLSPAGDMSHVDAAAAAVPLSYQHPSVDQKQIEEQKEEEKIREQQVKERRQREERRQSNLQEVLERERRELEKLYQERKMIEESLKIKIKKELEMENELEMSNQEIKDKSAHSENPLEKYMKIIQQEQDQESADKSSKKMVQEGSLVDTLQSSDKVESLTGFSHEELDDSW

## Microtubule-associated protein 1 light chain 3 beta (Homo sapiens) (from UniProt Q9GZQ8) F52A;L53A
  effect of a mutation on the interaction: disrupting interaction
